The supplement of paper PMC9170038

Tested on: MS2 coat protein
Assay: apparent KD of MS2 coat protein; designed switch direction (-1 OFF switch, 1 ON switch): -1; higher = weaker reporter binding
Outline: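 For each design, the apparent KD is the median over clusters of curves fitted to normalised cluster fluorescence. Clusters held RNA switches with common flanks, transcribed on Illumina chips by stalled E. coli RNA polymerase. These were titrated with SNAP-549-labelled MS2 coat protein, doubling from 0.7 or 1.5 nM to 3 µM, without input, with 200 uM small-molecule ligand, or with an oligonucleotide input.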

[1] = Eterna round: R95, input ligand: FMN 200 uM
[2] = Eterna round: R95, input ligand: microRNA oligo, concentration not stated
[3] = Eterna round: R95, input ligand: none
[4] = input ligand: microRNA oligo, concentration not stated

| Sequence | apparent KD of MS2 coat protein (input ligand: FMN 200 uM) [nM] | apparent KD of MS2 coat protein (input ligand: none) [nM] | apparent KD of MS2 coat protein [1] [nM] | apparent KD of MS2 coat protein [2] [nM] | apparent KD of MS2 coat protein [3] [nM] | apparent KD of MS2 coat protein [4] [nM] |
| --- | --- | --- | --- | --- | --- | --- |
| CUUUUGUGAGGAUAUUCGUAGUAGGGUCAUGGUACUAUUACGGAGAAGGCACAUGAGGAUCACCCAUGUACCUU [EX4 #44] (Eterna round: R97, puzzle: Exclusion 4) | 25 | 15.8 | – | – | – | – |
| AGACAGUCAGGAUAUACAUGAGGAUCACCCAUGUUGAGAUGUGAAAGGGCGGGAGUAGGUAGAAGGGACGAGAG [JR_Exclu3_Sub039] (puzzle: Exclusion 3) | – | – | 27.3 | 26.7 | 37.5 | – |
| CGCUAGUCAGGAUAUACGAACAUGUCAAAAGACGUGAAGGGACAUGAGGAUCACCCAUGUAGAAGGGACUAGCC [salish99_ex2_r3_011] (puzzle: Exclusion 2) | – | – | 111 | 21.3 | 25.8 | – |
| ACCUCACAUGAGGAUCACCCAUGUCAGGAUAUCUUUUAUUACAGCAAUCCUGUCGCUGAGAGAAGGGACAUUAA [EX1 #25] (Eterna round: R97, puzzle: Exclusion 1) | 33.8 | 28.1 | – | – | – | – |
| AGACAUGAGGAUCACCCAUGUAGUGGUCCUGGUACGCGAACGUAGGAUAUAUACUGGAUUCCAAUGUAGAAGGACGACACCGCG [Tetege] (Eterna round: R96, puzzle: Exclusion NG 3) | 90 | 149 | – | – | – | 112 |
| AAAGGAUGCCUAGGAUAUUGACUAAGAAAGGAUUAAGAAGGAGGAAAUAUAUGAGGGAUCCACAUGAGGAUCACCCAUGUACAC [Xesousbege] (Eterna round: R96, puzzle: Exclusion NG 1) | 769 | 607 | – | – | – | 315 |
| UCAAGUCCAUAGGAUAUCGACCAGUCCUCUGGAUGAGAAGGAUGAACUUGAGGAUCACCCAAGUGGCCGAAUAA [Aesin] (Eterna round: R97, puzzle: Exclusion 6) | 152 | 46.3 | – | – | – | – |
| AGCAUCUGAGGAUAUACUGGGUAUGGAAGGCGAAGGGCCAGACAUGAGGAUCACCCAUGUAGAAGGCAGUUUGC [Esenonan] (puzzle: Exclusion 2) | – | – | – | 78.4 | – | – |
| AAAACGUGAGGAUAUCCAAUAUAUGACAUGAGGAUCACCCAUGUUUCCACUCGUACCUCCGGAGAAGGCACAUUUU [Ex5 #79] (Eterna round: R97, puzzle: Exclusion 5) | 62.7 | 67 | – | – | – | – |
| UACAUGAGGAUCACCCAUGUUUUGUCGUGUAUGGUAUUUAUCUAGGAUAUCAAUUUGUUUAUUUAUGAGAAGGAGAAUAUUAAU [JMF's solution 16] (Eterna round: R96, puzzle: Exclusion NG 3) | 39.2 | 41 | – | – | – | 29.8 |
| UAUUACGCAAGCAGGUCCCACAUGAGGAUCACCCAUGUGCUCGUCUUAUAACGAUCUGUGGGAAAACCUACGGAUCG [Elimod 19 - Jieux - Sensor, turn-off variant 1] (Eterna round: R97, puzzle: Sensor, turn-off variant 1) | 45.8 | 48.4 | – | – | – | – |
| GUUAUGUAAGGAUAUAUGAGUCACGGAAAUAAACCGUGAAGAUAGAAGGUACAUGAGGAUCACCCAUGUAAGGC [Mod of Anonveat 9 - Jieux - Exclusion 4] (Eterna round: R97, puzzle: Exclusion 4) | 16.7 | 14 | – | – | – | – |
| GGUGGACAUGAGGAUCACCCAUGUGAGGAUAUCGGCCGGUUCGCGGUGGCUGGCGUCUCGAGAAGGCGCAUAGU [Exclusion 1 V71] (puzzle: Exclusion 1) | – | – | – | 28.7 | – | – |
| AAAAGGUGAGGAUAUACAAUGAUCCUCAUAAUAACCCGAAGACAUGAGGAUCACCCAUGUAGAAGGCACAAAUA [Istive] (puzzle: Exclusion 2) | – | – | 33.4 | 16.5 | 19.8 | – |
| UUUUUACGAGGAUAUCGUUUUUUUCACAUGAGGAUCACCCAUGUUGUUUAUGUUGCGUUGCGAGAAGGCGUUUGUU [JR_E5_Sub063] (puzzle: Exclusion 5) | – | – | – | 24.2 | – | – |
| CCUCUGUGAGGAUAUUGGCAACACUGCACCCAAUAAAGCGCCGAGAAGGCACAUGAGGAUCACCCAUGUACGCA [Eternabot (L1) Solution 66] (Eterna round: R97, puzzle: Exclusion 4) | 22.4 | 18.4 | – | – | – | – |
| GUGGUCCGAGGAUAUAUUAUGUGAUACAUGAGGAUCACCCAUGUUAUAUGAUGGAUGUUAGUAGAAGGCGGACUAC [Mat - Exclusion 5 - JL mod - D82] (puzzle: Exclusion 5) | – | – | 95.2 | 86.2 | 96.4 | – |

| Sequence | apparent KD of MS2 coat protein (input ligand: FMN 200 uM) [nM] | apparent KD of MS2 coat protein (input ligand: none) [nM] | apparent KD of MS2 coat protein [1] [nM] | apparent KD of MS2 coat protein [2] [nM] | apparent KD of MS2 coat protein [3] [nM] | apparent KD of MS2 coat protein [4] [nM] |
| --- | --- | --- | --- | --- | --- | --- |
| ACAAGCUUUUUGUUCGUCUUAUAAUAAUAAAUAAAGAUAACAUGAGGAUCACCCAUGUAACAAAGACGGACUCAUGU [Sesor Array 18 - Jieux - Sensor v3, turn-off variant 2] (puzzle: Sensor v3, turn-off variant 2) | – | – | 18.2 | 279 | 16.3 | – |
| GAUCAUGCAGGAUAUACAGUAUCCAUGAAAACAUGGAUCUCACAUGAGGAUCACCCAUGUAGAAGGGCAUGAUC [Omei Ex2 A25] (Eterna round: R97, puzzle: Exclusion 2) | 40.1 | 41.4 | – | – | – | – |
| ACAAGCUUUUUGUUCGUCUUAUAAUAAUAAAUAAAUAUAACAUGAGGAUCACCCAUGUUAAGAAGACAACCUCAUGU [Sesor Array 25 - Jieux - Sensor v3, turn-off variant 2] (puzzle: Sensor v3, turn-off variant 2) | – | – | 157 | 606 | 305 | – |
| UCGGCGCGAGGAUAUACGUUUGCUUUUUAGGAUCGUGGCGUACAUGAGGAUCACCCAUGUAGAAGGCGCGCCGC [Apr-15 SS2-28] (puzzle: Exclusion 2) | – | – | – | 12.4 | – | – |
| ACUGAACAUGAGGAUCACCCAUGUAAGGAUAUGCCACACGGGCUACAUAGCCAUCAAAGUAGAAGGUGCUGGGA [Eternabot (Original) Solution 15] (Eterna round: R97, puzzle: Exclusion 1) | 20.3 | 26.2 | – | – | – | – |
| GUGAGCAGACGGAGAUCCAACAUGAGGAUCACCCAUGUCUCACAAGCUUUUUGCUCGUCUUAUCCUCCUCUGUUCAC [Elimod 22 - Jieux - Sensor, turn-off variant 1] (Eterna round: R97, puzzle: Sensor, turn-off variant 1) | 15.8 | 14.6 | – | – | – | – |
| AAACGGGUGUCCUCGUUUUCAACAUGAGGAUCACCCAUGUUCGAGGAUAUCCAAUAAGCUCUUCAGGAGAAGGCGAACAUAAAA [Anenence] (Eterna round: R96, puzzle: Exclusion NG 3) | 20.1 | 15.7 | – | – | – | 13.3 |
| UUCGUGCUGCUUUGCUGUACGAGUACAUGAGGAUCACCCAUGUAGGAUAUGGUACGCUUUGCGUGCUAGAAGGAUAUGUGUUGC [salish99_ExNG3_r04_506] (Eterna round: R96, puzzle: Exclusion NG 3) | 24.6 | 24 | – | – | – | 16.9 |
| AGUUGGGCAGGAUAUACAUGAGGAUCACCCAUGUGAGAGAUACUAGUGAGGUCGAUUAGUAGAAGGGCCUGACA [Mat X3R4 m2] (Eterna round: R97, puzzle: Exclusion 3) | 251 | 40.9 | – | – | – | – |
| GUGGUUUGUGUAGGAUAUUCGUUUGUGCGGUGCGGAGAAGGACAUGAGGAUCACCCAUGUGUGCGAGGAUCACCCGUGUGUUGU [double 2 (less A)] (Eterna round: R96, puzzle: Exclusion NG 1) | 55.6 | 50.5 | – | – | – | 40.3 |
| CUGGAGUCAGGAUAUAGGGCGGCUAUAACGCUCGCGCCGACCUAGAAGGGACUUGAGGAUCACCCAAGUAAAAU [Teerlaxe] (Eterna round: R97, puzzle: Exclusion 4) | 167 | 55.1 | – | – | – | – |
| CAGUACUGAGGAUAUACAUGAGGAUCACCCAUGUGAACCAGCUAGGAUACUAGCAAAAGUAGAAGGCAGUACUG [Mat - Exclusion 3 - Eli Mod - D17] (Eterna round: R97, puzzle: Exclusion 3) | 67 | 71.4 | – | – | – | – |
| AAUCCACAUGAGGAUCACCCAUGUGAGGAUAUGAUACUAUGUACUUCGGUACAUAGUAUCAGAAGGCACAUGAA [Ex1-3: 50] (puzzle: Exclusion 1) | – | – | 118 | 64.2 | 71.6 | – |
| CUGGUGUGAGGAUAUCAAAGACCUCGGGAUAGUACCGAGGAUGAGAAGGCACAUGAGGAUCACCCAUGUAACAA [Armaleti] (puzzle: Exclusion 4) | – | – | – | 22.1 | – | – |
| GUCAGACGAGGAUAUAGAUUUAAGUACAUGAGGAUCACCCAUGUGCAUAUGUAUUUAGAUUUAGAAGGCGUCUGAC [E5/18-A3] (Eterna round: R97, puzzle: Exclusion 5) | 584 | 428 | – | – | – | – |
| GUUGUGUGAGGAUAUGCCUGGCCGUGAGGCCAGAUUGAGUGGCAGAAGGUACAUGAGGAUCACCCAUGUACGGG [salish99_ex4_4_004] (Eterna round: R97, puzzle: Exclusion 4) | 54.1 | 24.4 | – | – | – | – |
| GUGUAGUCAGGAUAUACAUAGGAAGAGAAGAUAAGAUAAGCACAUGAGGAUCACCCAUGUAGAAGGGACAGUGU [Excluse me!! 2 - Jieux - Exclusion 2] (puzzle: Exclusion 2) | – | – | 77.6 | 66.1 | 61 | – |
